Here are results for two molecules from patent US20190071499A1 (published 2019).

One test concerns the target T1, human IFN-α10 (human, UniProt P01566 24-189).
T1 construct: recombinant protein; also called rhIFN-α10
The test can be described thus: ELISA or LIPS (Table 7 summary). In general terms: An ELISA detects its analyte on a solid surface through an enzyme-linked reagent.

Test [1] has as its target T2, human IFN-α1 (human, UniProt P0DY56 24-189).
T2 construct: commercial recombinant protein; also called IFN-alpha 1beta; IFN-α1/13
Nature of the test: ELISA or LIPS (Table 7 summary).

In the next test the target is T3, human IFN-α4 (human, UniProt P05014 24-189).
T3 construct: commercial recombinant protein; also called rhIFN-α4; IFN-α4 (SinoBiological)
T3 sequence (P05014 24-189 limits assumed): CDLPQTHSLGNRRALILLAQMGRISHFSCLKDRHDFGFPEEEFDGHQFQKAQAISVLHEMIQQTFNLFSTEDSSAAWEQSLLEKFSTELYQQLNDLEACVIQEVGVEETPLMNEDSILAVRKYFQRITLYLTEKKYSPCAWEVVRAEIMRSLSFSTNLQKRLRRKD
The test can be described thus: ELISA or LIPS (Table 7 summary).

For the next test, the target named is T4, human IFN-α21 (human, UniProt P01568 24-189).
T4 construct: commercial recombinant protein; also called rhIFN-α21; IFN-α21 (PBL)
T4 sequence (P01568 24-189 limits assumed): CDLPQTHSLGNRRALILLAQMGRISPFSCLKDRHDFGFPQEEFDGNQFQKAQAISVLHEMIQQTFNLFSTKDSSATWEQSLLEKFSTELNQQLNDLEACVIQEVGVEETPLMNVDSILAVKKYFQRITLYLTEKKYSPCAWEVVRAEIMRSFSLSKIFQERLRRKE
The test can be described thus: ELISA or LIPS (Table 7 summary).

The target in the next test is T5, human IFN-α16 (human, UniProt P05015 24-189).
T5 construct: recombinant protein; also called rhIFN-α16
T5 sequence (P05015 24-189 limits assumed): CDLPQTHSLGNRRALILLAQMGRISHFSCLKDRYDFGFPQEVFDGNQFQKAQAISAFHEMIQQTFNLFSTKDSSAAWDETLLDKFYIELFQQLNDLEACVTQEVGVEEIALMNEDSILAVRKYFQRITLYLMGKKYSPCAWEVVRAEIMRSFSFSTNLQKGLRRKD
The test can be described thus: ELISA or LIPS (Table 7 summary).

Another test has as its target T6, human IFN-α14 (human, UniProt P01570 24-189).
T6 construct: commercial recombinant protein; also called rhIFN-α14; IFN-α14 (ATGen)
Nature of the test: ELISA or LIPS (Table 7 summary).

The target of a further test is T7, g1 IFN-α10 (human, UniProt P01566 24-189).
T7 construct: in-house fusion; also called IFN-α10-Gaussia luciferase fusion protein; not shown: Gaussia luciferase (naturally secreted), N-terminal fusion partner
T7 sequence (P01566 24-189): as the sequence (P05014 24-189 limits assumed) above, with A19G, H26P, G37R, F38I, E40Q, H46N, T132I, K134R counted along it
Nature of the test: LIPS, IFN-Gaussia luciferase fusion proteins.

In the next test the target is T8, g1mIFN-α9 (mouse, UniProt P09235 24-190).
T8 construct: also called murine IFN-α9 (Gaussia luciferase fusion); not shown: Gaussia luciferase fusion partner
T8 sequence (looked up): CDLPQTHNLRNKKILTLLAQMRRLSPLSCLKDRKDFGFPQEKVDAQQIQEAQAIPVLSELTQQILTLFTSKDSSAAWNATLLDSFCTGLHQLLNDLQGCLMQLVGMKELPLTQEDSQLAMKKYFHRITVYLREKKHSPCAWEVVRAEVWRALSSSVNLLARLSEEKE
Nature of the test: LIPS.

For a further test, the target named is T9, g1mIFN-α1 (mouse, UniProt P01572 24-189).
T9 construct: also called murine IFN-α1 (Gaussia luciferase fusion); not shown: Gaussia luciferase fusion partner
T9 sequence (looked up): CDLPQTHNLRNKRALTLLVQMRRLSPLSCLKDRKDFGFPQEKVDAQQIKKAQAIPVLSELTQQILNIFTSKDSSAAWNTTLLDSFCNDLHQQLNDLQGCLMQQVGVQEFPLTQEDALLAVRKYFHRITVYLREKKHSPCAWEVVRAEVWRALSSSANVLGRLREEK
The test can be described thus: LIPS.

Test [2] has as its target T10, human Fc fusion mouse IFN-α2 (mouse, UniProt P01573 24-190).
T10 construct: bought (SinoBiological); also called murine IFN-α2; murine INFA2; not shown: human Fc
T10 sequence (looked up): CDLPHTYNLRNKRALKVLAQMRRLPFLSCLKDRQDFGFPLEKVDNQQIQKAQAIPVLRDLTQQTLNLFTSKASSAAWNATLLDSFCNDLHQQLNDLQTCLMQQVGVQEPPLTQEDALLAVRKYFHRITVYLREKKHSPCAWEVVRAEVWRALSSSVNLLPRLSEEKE
Nature of the test: ELISA, human Fc fusion mouse IFN-α.

The target in test [3] is T11, human Fc fusion mouse IFN-α4 (mouse, UniProt P07351 25-186).
T11 construct: bought (SinoBiological); also called murine IFN-α4; not shown: human Fc
T11 sequence (looked up): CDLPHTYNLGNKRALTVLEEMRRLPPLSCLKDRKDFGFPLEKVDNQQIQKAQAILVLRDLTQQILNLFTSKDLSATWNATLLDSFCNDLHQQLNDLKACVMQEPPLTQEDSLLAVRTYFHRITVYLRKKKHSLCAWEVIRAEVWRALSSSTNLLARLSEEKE
The test can be described thus: ELISA, human Fc fusion mouse IFN-α.

In test [4] the target is T2, human IFN-α1. The test can be described thus: ELISA or LIPS (Table 7 summary; ELISA at 300 ng/ml MAB in paragraph 311).
Procedure: In this experiment, examined MABs (300 ng/ml) were incubated for 2 hours with antigen-coated plates (coating overnight at 1 μg/ml in PBS, followed by wash out and blocking with 2% BSA in PBS). The plates were subsequently washed and binding of MABs was detected with anti-human HRP-conjugated secondary antibody.

T1 sequence (P01566 24-189 limits assumed): as the sequence (P05014 24-189 limits assumed) above, with A19G, H26P, G37R, F38I, E40Q, H46N, T132I, K134R counted along it
T2 sequence (P0DY56 entry or part of it limits assumed): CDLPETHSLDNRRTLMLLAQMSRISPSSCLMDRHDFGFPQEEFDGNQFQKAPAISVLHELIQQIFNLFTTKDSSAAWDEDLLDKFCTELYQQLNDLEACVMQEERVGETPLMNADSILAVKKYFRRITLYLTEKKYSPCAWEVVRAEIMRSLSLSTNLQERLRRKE
T6 sequence (P01570 24-189 limits assumed): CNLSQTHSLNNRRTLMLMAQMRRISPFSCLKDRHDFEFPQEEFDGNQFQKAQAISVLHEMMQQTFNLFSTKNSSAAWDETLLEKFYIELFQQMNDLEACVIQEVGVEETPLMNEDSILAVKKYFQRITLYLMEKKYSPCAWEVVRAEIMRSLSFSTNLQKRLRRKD

B1: 31B4 (antibody, human IgG1, kappa, V domains shown)
VH: QIQLQESGPGLVRPTETLSLTCSVSGDSISQSSHYWAWIRQPPGKGPEWIGSVYFSSMTHYNPSLTSRVSISIDKAMNKFSLKVTSVTVADTATYYCARQALARVGAMNWFDPWGQGSLVTVSS
VL: DIIMTQSPESLPVSLGEGVTINCKSSQSVFFTSSNRSCLAWYQQKPGQSPKLLIYWASTRQSGVPDRFTGSGSGTDFSLTIAGLQVEDVAVYFCQQCHASPPTFGGGTRLELRR
notes: human-derived IgG1, kappa; clonally related to 26B9; also called MAB 31B4; hMAB 31B4
Take B1: the binding result with human IFN-α10, with human IFN-α1 [1], in the test with human IFN-α4, in the test with human IFN-α21, with human IFN-α16 and in the test with human IFN-α14 was “binds” in each case. Moreover, the binding result was “binds” in the test with g1 IFN-α10; “no binding” with g1mIFN-α9; “no binding” with g1mIFN-α1; “no binding” in [2]; “no binding” in test [3].

B2: 5D1 (antibody, human IgG1, kappa, V domains shown)
VH: EVQLVQAGAEVKAPGESLRISCKVSGYTFTSYWISWVRQIPGKGLEWMVKIDPRDSYTIYNPSFQGHVSISVDKSITTVYLQWSSLQASDTAIYYCVRHYLTQSLVDYFDHWGQGTLVAVSS
VL: DIQMTQSPSSLSASVGDSVTITCRASQSVSNYFHWYRQKPGKAPELLIYSASNLQTGVPSRFTGSGSGTECTLTITSLQPDDFATYYCQQTHGYPFTFGQGTKLDVRR
notes: human-derived IgG1, kappa; also called MAB 5D1; hMAB 5D1
With B2, the binding result in the test with human IFN-α10 is “binds”; with human IFN-α21, “binds”; with human IFN-α16, “binds”; with g1mIFN-α9, “no binding”; with human IFN-α1 [4], “no binding”; in [2], “no binding”. For the same molecule, in test [3], the binding result is on record as “no binding”.
